Ends that are not written are not given here.
T1: K280-ac protein fragment (human)
T1 construct: also called mAC
T1 peptide: VQIINK(Ac)KLDLSN

B1: ADEL-Y01h v04 antibody (antibody, V domains shown)
VH: EVQLQQSGPGLVKPSQTLSLTCAVSGDSITSGYWNWIRQSPSRGLEWLGYIRYSGRTYYNPSLKSRITINRDTSKNQFSLQLNSVTPEDTAVYYCASVYFTYWGQGTLVTVSS
VL: DVVMTQSPLSLPVTLGQPASISCKSSQSLLDSDGKTYLNWFQQRPGQSPKRLISLVSKLDSGVPDRFSGSGSGTDFTLKISRVEAEDVGVYYCWQGSHFPYTFGQGTKLEIK
notes: Humanized antibody; It was detected with anti-human IgG; also called Y01h01v04
B2: v12 (antibody, V domains shown)
VH: EVQLVESGGGLVQPGRSLRLSCTVSGDSITSGYWNWFRQAPGKGLEYVGYIRYSGRTYYNPSLKSRFTISRDTSKNIAYLQMNSLKTEDTAVYYCASVYFTYWGQGTLVTVSS
VL: EVVLTQSPGTLSLSPGERATLSCKSSQSLLDSDGKTYLNWYQQKPGQSPKRLISLVSKLDSGIPDRFSGSGSGTDFTLTISRLEPEDFAVYYCWQGSHFPYTFGQGTKLEIK
notes: also called Y01h01v12; ADEL-Y01h v12 antibody
B3: ADEL-Y01h v10 antibody (antibody, V domains shown)
VH: B2 VH
VL: B1 VL
notes: Humanized antibody; It was detected with anti-human IgG; also called Y01h01v10
B4: ADEL-Y01h v06 antibody (antibody, V domains shown)
VH: B1 VH
VL: B2 VL
notes: Humanized antibody; It was detected with anti-human IgG; also called Y01h01v06
B5: ADEL-Y01h v03 antibody (antibody, V domains shown)
VH: EVQLQESGPGLVKPSQTLSLTCTVSGDSITSGYWNWIRQPPGKGLEYIGYIRYSGRTYYNPSLKSRVTISRDTSKNQFSLKLSSVTAADTAVYYCASVYFTYWGQGTLVTVSS
VL: B2 VL
notes: Humanized antibody; It was detected with anti-human IgG; also called Y01h01v03
B6: v11 (antibody, V domains shown)
VH: B2 VH
VL: DVVMTQSPDSLAVSLGERATINCKSSQSLLDSDGKTYLNWYQQKPGQSPKRLISLVSKLDSGVPDRFSGSGSGTDFTLTISSLQAEDVAVYYCWQGSHFPYTFGQGTKLEIK
notes: also called Y01h01v11; ADEL-Y01h v11 antibody
B7: ADEL-Y01h v09 antibody (antibody, V domains shown)
VH: EVTLKESGPTLVKPTQTLTLTCTVSGDSITSGYWNWIRQPPGKALEYLAYIRYSGRTYYNPSLKSRLTITRDTSKNQVVLTMTNMDPVDTATYYCASVYFTYWGQGTLVTVSS
VL: B2 VL
notes: Humanized antibody; It was detected with anti-human IgG; also called Y01h01v09
B8: ADEL-Y01h v02 antibody (antibody, V domains shown)
VH: B5 VH
VL: B6 VL
notes: Humanized antibody; It was detected with anti-human IgG; also called Y01h01v02
B9: ADEL-Y01h v08 antibody (antibody, V domains shown)
VH: B7 VH
VL: B6 VL
notes: Humanized antibody; It was detected with anti-human IgG; also called Y01h01v08
B10: ADEL-Y01h v05 antibody (antibody, V domains shown)
VH: B1 VH
VL: B6 VL
notes: Humanized antibody; It was detected with anti-human IgG; also called Y01h01v05

Biological target: T1, K280-ac protein fragment
Test: ELISA on K280-ac coated at 250 ng/well, HRP anti-human IgG
Method: In addition, binding of the K280-ac protein fragment prepared in Preparation Example 1 with the ADEL-Y01h (v01 to v12) antibodies prepared in Preparation Example 2 was measured by ELISA.
First, plates were treated with the K280-ac protein fragment at 250 ng/well and reaction was allowed to proceed at 4° C. overnight. The next day, washing with a washing buffer was performed three times, and then treatment with a primary antibody was performed with 8 concentrations (2 μg, 1 μg, 0.5 μg, 0.25 μg, 0.12 μg, 0.06 μg, 0.03 μg, 0.01 μg). As a secondary antibody, HRP-labeled anti-human IgG antibody was used.

Absorbance at 450nm at 0.01ug/well | Absorbance at 450nm at 0.03ug/well | Absorbance at 450nm at 0.06ug/well | Absorbance at 450nm at 0.12ug/well | Absorbance at 450nm at 0.25ug/well | Absorbance at 450nm at 0.5ug/well | Absorbance at 450nm at 1ug/well | Absorbance at 450nm at 2ug/well | binding result | Binder
0.354 | 0.537 | 0.822 | 1.43 | 1.74 | 2.04 | 2.18 | 2.32 | – | B1
0.145 | 0.398 | 0.484 | 1.05 | 1.19 | 1.29 | 1.58 | 1.41 | – | B2
0.568 | 0.997 | 1.23 | 1.65 | 1.64 | 1.78 | 1.9 | 1.87 | – | B3
0.0585 | 0.114 | 0.265 | 0.657 | 1.09 | 1.51 | 1.76 | 2.05 | – | B4
0.0815 | 0.17 | 0.302 | 0.641 | 1.06 | 1.51 | 1.79 | 2.06 | – | B5
0.0085 | 0.0225 | 0.027 | 0.0345 | 0.036 | 0.0395 | 0.0455 | 0.048 | no binding (tested: 2 ug/well) | B6
0.251 | 0.542 | 0.75 | 1.22 | 1.32 | 1.45 | 1.61 | 1.69 | – | B7
0.103 | 0.203 | 0.377 | 0.805 | 1.12 | 1.61 | 1.83 | 2.08 | – | B8
0.015 | 0.041 | 0.0375 | 0.0745 | 0.0855 | 0.0965 | 0.179 | 0.294 | – | B9
0.131 | 0.224 | 0.431 | 0.908 | 1.3 | 1.7 | 1.85 | 2.06 | – | B10
